The text below walks through data of patent publication US20080241172A1 (CENTRE NATIONAL DE LA RECHERCHE SCIENTIFIQUE, published 2008).

To fix the notation:
B1: Torpedo AChET mutant C37S (enzyme)
chain: DDDSELLVNTKSGKVMRTRIPVLSSHISAFLGIPFAEPPVGNMRFRRPEPKKPWSGVWNASTYPNNCQQYVDEQFPGFPGSEMWNPNREMSEDCLYLNIWVPSPRPKSATVMLWIYGGGFYSGSSTLDVYNGKYLAYTEEVVLVSLSYRVGAFGFLALHGSQEAPGNMGLLDQRMALQWVHDNIQFFGGDPKTVTLFGESAGRASVGMHILSPGSRDLFRRAILQSGSPNCPWASVSVAEGRRRAVELRRNLNCNLNSDEDLIQCLREKKPQELIDVEWNVLPFDSIFRFSFVPVIDGEFFPTSLESMLNAGNFKKTQILLGVNKDEGSFFLLYGAPGFSKDSESKISREDFMSGVKLSVPHANDLGLDAVTLQYTDWMDDNNGIKNRDGLDDIVGDHNVICPLMHFVNKYTKFGNGTYLYFFNHRASNLVWPEWMGVIHGYEIEFVFGLPLVKELNYTAEEEALSRRIMHYWATFAKTGNPNEPHSQESKWPLFTTKEQKFIDLNTEPIKVHQRLRVQMCVFWNQFLPKLLNATETIDEAERQWKTEFHRWSSYMMHWKNQFDQYSRHENSAEL
B2: Torpedo AChET mutant T12C (enzyme)
chain: B1 chain with T547C, S572C
B3: wild type Torpedo AChET (enzyme)
chain: B1 chain with S572C
notes: The wild type is built by undoing that change; Expressed in transfected COS cells; cell extracts and medium were analysed; also called wild type AChET subunits
B4: Torpedo AChET mutant S19C (containing two cysteines at positions 19 and 37) (enzyme)
chain: B1 chain with S554C, S572C
notes: It may include a signal peptide; also called mutated torpedo AChE
B5: Torpedo AChET mutant with M21 of the t peptide replaced by a cysteine (enzyme)
chain: B1 chain with M556C, S572C
B6: Torpedo AChET mutant with A6 of the t peptide replaced by a cysteine (enzyme)
chain: B1 chain with A541C, S572C
B7: Torpedo AChET mutant S19C/C37S (enzyme)
chain: B1 chain with S554C
notes: also called S19 with C37S
B8: Torpedo AChET mutant with M21 of the t peptide replaced by a cysteine, with mutation of C37 (C37S) (enzyme)
chain: B1 chain with M556C
notes: also called M21 with C37S
B9: Torpedo AChET mutant with A6 of the t peptide replaced by a cysteine, with mutation of C37 (C37S) (enzyme)
chain: B1 chain with A541C
notes: also called A6 with C37S
B10: Torpedo AChET mutant with H34 of the t peptide replaced by a cysteine (enzyme)
chain: B1 chain with H569C, S572C
B11: Torpedo AChET mutant with M22 of the t peptide replaced by a cysteine, with mutation of C37 (C37S) (enzyme)
chain: B1 chain with M557C
notes: also called M22 with C37S
B12: Torpedo AChET mutant with residue 3 of the t peptide replaced by a cysteine (enzyme)
chain: B1 chain with I538C, S572C
notes: also called 13 (printed; read as I3)
B13: Torpedo AChET mutant with residue 3 of the t peptide replaced by a cysteine, with mutation of C37 (C37S) (enzyme)
chain: B1 chain with I538C
notes: also called 13 (printed; read as I3) with C37S
B14: Torpedo AChET mutant with T12 of the t peptide replaced by a cysteine, with mutation of C37 (C37S) (enzyme)
chain: B1 chain with T547C
notes: also called T12 with C37S
B15: Torpedo AChET mutant with H34 of the t peptide replaced by a cysteine, with mutation of C37 (C37S) (enzyme)
chain: B1 chain with H569C
notes: also called H34 with C37S
B16: Torpedo AChET mutant with M22 of the t peptide replaced by a cysteine (enzyme)
chain: B1 chain with M557C, S572C

Changes are numbered by the printed parent chain. Numbers in names are those of the source.

The first series deals with the molecule itself. Nature of the series: homo-oligomers from transfected COS cells; sedimentation in sucrose gradients (tetramers still formed, dimers not). As to the method: (§1) COS cells were transfected by the DEAE-dextran method, as previously described (Bon et al., 1997), using 4 μg of DNA encoding the AChE catalytic subunit and 4 μg of DNA encoding QN or PRAD-deleted QN, per 100 mm dish. Because Torpedo AChE folds into its active conformation at 27° C., but not at 37° C., the cells were incubated for two days at 37° C. after transfection, then transferred to 27° C. and maintained at this temperature for 3-4 days, in a medium containing 10% Nuserum (Inotech, Dottikon, Switzerland), which had been pretreated with 10⁻⁶ M soman to inactivate serum choline sterases.
(§2) Centrifugation was performed in 5-20% sucrose gradients (50 mM Tris-HCl, pH 7.5, 50 mM MgCl₂, either in the presence of 0.2% Brij-97 or in the presence of 0.2% Triton X-100) in a Beckman SW41 rotor, at 36,000 rpm, for 18 h at 6° C. The gradients contained Escherichia coli β-galactosidase (16 S) and alkaline phosphatase (6.1 S) as internal sedimentation standards (Bon et al., 1997). Amphiphilic molecules generally sediment faster in the presence of Triton X100 than of Brij-97, providing an indication on their amphiphilic character.
As to B1, the binding result was “binds”.

The next series deals with the molecule itself. Nature of the series: homo-oligomers from transfected COS cells; sedimentation in sucrose gradients. The method, then:
as §1, §2
For the protein B2, the binding result is “binds”. On to B3, for which the binding result is “binds”.

Another series concerns the molecule itself. Nature of the series: homodimers from transfected COS cells; sedimentation in sucrose gradients. As to the method: as §1, §2
Turning to B4, the binding result is “binds”. In the case of B5, the binding result was “binds”. Regarding B6, the binding result is listed as “binds”.

Consider B7, for which the binding result was “binds”.

As to B8, the binding result is recorded as “binds”.

On to B9, for which the binding result was “binds”. On the same count and under the same terms, for B10 the value was “binds”; for B11, “binds”. On the same count and under the same terms, for B12 the value was “binds”. As to B13, the binding result was “binds”. As to B14, the binding result was “binds”.

B15: the binding result is reported as “binds”. For the protein B16, the binding result was “binds”.
